Data: the DeepSol protein solubility set

Test: soluble on expression in E. coli; label from the status in PepcDB or PDB records

Sequence | soluble on expression in E. coli
MVRVVRHSRGTCNRGLYEVRELARNRTLQQWGVEDSAELYGIRNWGAGYFDVAQNGDVVVYPFGHNRGPAVSIPEIIGGMRERGYDMPVLLRIENILDSQITSLHTSFRNAIGSLGYKGEYRGIFPIKVNQQQQVVEKIAQFGSHYHHGLEVGSKAELIAAVSQLRDREACLVCNGYKDEEFIDLGLHAVRLGFMCIFVLEMPGELDLILERGEALGVKPIIGVRAKLSVKAGGHWTDSGGERSTFGLTTSQIVDVVDRLKEKGMLDCFKLLHYHLGSQVPNIRDIRAAVMEACRIYAGLVQEGAAMGFLDLGGGLAVDYDGSHTNFVSSRNYTLDEYCADIVEAVMTTLDEQNIPHPHIVTESGRATVAYYSMLLFNILDVSRVEIGNLPDALPEDTPEPVRNMREVLAGMTLRNLQECYNDALYYRDAVRQLFLTGQVTLRQRTLSERLFWAIMKRIAQEKQKLKHVPKDLAEIDVALADIYYGNFSVFQSLPDSWAIDQLFPVMPVHRLQELPSRQGILSDITCDSDGRIDHFIDPQGMKGTLDLHPLRDGEEYYLGVFLVGAYQETLGDLHNLLGDTNVVSVRVHEDGTYEFVREIRGDSVADILSYVEYDPRRIYEDIRELAERAVREGRITASDRFRVMQAYEDGLRGYTYFERLEHHHHHH | not soluble
MSETFFHLLGPRTQPNDDSFSMNPLPITCQVNDEPSMAALEQCAHSPQVIALLNELQHQLSQRQPPLGEVLAVDLLNLNADDRHFINTLLGEGEVSVRIQQADDSESEIQEAIFCGLWRVRRRRGEKLLEDKLEAGCAPLALWQAATQNLLPTDSLLPPPIDGLMNGLPLAHELLAHVRNPDAQPHSINLTQLPISEADRLFLSRLCGPGNIQIRTIGYGESYINATGLRHVWHLRCTDTLKGPLLESYEICPIPEVVLAAPEDLVDSAQRLSEVCQWLAEAAPT | not soluble
NTKPENDLERAKRKNERAKARCVGITFETRPDYAREEHIREMLRFGGTKVELGVQSLYDDVLERIKRGHGVKEVAEATRLLRDSAFKVGYHIMPGLPGSSFERDLRMFRELFENDSFKPDYLKIYPTLVVEGTELYEMWKRGEYEPYTTEEVVELIVMAKRRFPE | not soluble
PPGTVDKKMVEKCWKLMDKVVRLCQNPKLALKNSPPYILDLLPDTYQHLRTILSRYEGKMETLGENEYFRVFMENLMKKTKQTISLFKEGKERMYEENSQPRRNLTKLSLIFSHMLAELKGIFPSGLFQGDTFRITKADAAEFWRKAFGEKTIVPWKSFRQALHEVHPISSGLEAMALKSTIDLTCNDYISVFEFDIFTRLFQPWSSLLRNWNSLAVTHPGYMAFLTYDEVKARLQKFIHKPGSYIFRLSCTRLGQWAIGYVTADGNILQTIPHNKPLFQALIDGFREGFYLFPDGRNQNPDLTGLCEPTPQDHIKVTQEQYELYCEMGSTFQLCKICAENDKDVKIEPCGHLMCTSCLTSWQESEGQGCPFCRCEIKGTEPIVVDPF | soluble
MYLSHFGLEQLPFHLTPDTELFLGLAPHFEAIQTLSAAIEMGEGVSKLTGEVGTGKTMVCRMLLTHLGDEVALIYLPNPMLSGEELRQAVAAELQLDVASPVRVVEQIQTRLIELHQQGKRVVALVDEAQALSDEALETLRLFGNLETEQTKLLQIVLIGQPELDVRLAQHHLRQFRQRITFNANLRPLTQAETEVYIESRLQKAQAPYPLFNATLKKAVWRASQGIPRLINQICHKALLLAWHEQSPLVNQHHLFAAIHDTYDSCKPRFKTPILWGWSKP | not soluble
MGSDKIHHHHHHMNRRDFLKSALITGAALGLPAGMDPLLTVLKAAERPDLAVVRGTPPAAITRAAIDSLGGMKRFVSRGDVVVVKPNIGWDRTPEYAANTNPEVVGAVVRLCFEAGAKQVKVFDRPVNDPRRTYRQSGIAAAASALGASVLFTDSRKFKDMRINGSSLKSWPLYTEVFEADKVINIPIAKTHGTSKLTLGMKNWMGVMGGWRGRIHQRIDESLVDLATFIKPTLTILDAVRILTDNGPQGGNLADVRRLNMVIAGTDAVAVDAFGATLFGMKPAELGFVRIGHQRRLGSMDLAGMNIRRITL | not soluble
MGSDKIHHHHHHMSFSMLRAALVLGSIGCAFSPQVNAKLNPLTVQIQPLAQSKLLLDLANAGDQLIAVGQRGHVLVYDKSWIQVPTPVLSQLTKVFFLDAKLGWAVGHDASIIHTQDGGQTWQLQMQSREIEKPFLDIRFFNANEGIAIGAYGLFYRTLDGGKTWEPEFHEELLFEEDVSYLAELKAEDEALYLSERAALLPHFNRIIRLNDSRLLLVGELGLVAESKDNGKHFTRTDFDYDGSMFNAIQVGEQIYVMGLRGHVFKTDLSLSDWQQVELPVKSSINGALVHKGELYIVGNAGVVLRLDGKGHAEIVARRQGENIVAVAESADKQLWFAGSNGLFQLK | not soluble
MLSLFALSEENKPELDCVANPTLLPHDIMYFDGFLSSEDEAFVADRLDAGEWSTELKRRVQHFGYRYDYKVRAVTPDAYLGPLPPWLGLFAERLVADGYCRTVPDQVIANEYLLGQGISAHVDCVPCFDDTIVSISLLSACEMVFRDLRGPGIRSVLHPRSGVLLRGSSRYDWTHEIPARKSDIVNGVKTARSRRISLTFRKVLGLKRPLEHHHHHH | not soluble
MSLSDDSMIDAPLTRADAVSEKIVFQDDFNQVDSIPDRNKWSLCKKGSPAWSKYLSESYDQAYVHDGKLVLVAEKVNGVYKTGGVQSLGKAEFQYGKIEICARFTKTAKGGWPAIWMMPAKPVYSGWPACGEIDIMEQLNHDGIVYQTIHSHYKNDLGFTKPVPTKTVSYNKGQFNIFGIEWTPEALTFKVNGATTLVYPNLHLADESVKKQWPFDTSFYLILNYALGGPGTWPGTIMDSELPAKMEIDWVKVSQPRGREGHHHHHH | soluble
MGSDKIHHHHHHMKRVSVVILNWNGVDMLRKFIPSVMDNSVGEGIEICVADNASSDGSLEMLRSEFPVVRLIELDQNYGFAEGYNRALEQVDAEYVVLLNSDVEVTPHWLEPLLDYMDTHSGTVACQPKLLSWHNKEYFEYAGASGGFIDRYGYPFCRGRIFDVVEKDCGQYDTITEVMWVTGAALFIRLADYREVGGLDGHFFAHMEEIDLCWRLRSRGKKLVCIPQSVVYHVGGATLKKENPRKTFLNFRNNLLMLYKNLPDKELEHVLFIRGILDRVAALVFYLKKDRANARAVMQARREFEDIRYSFAASRIENMMKSTDEIIPERTHFSIVMKYYLLGKKHFSQLKLF | not soluble
LYAFFKTMPKGGELHYHLAGGAYPETMLALAANGNYCLDKHTFAVSKDSSHCEGVNVKEVFNNPELYSNIIKDWSMKDFIPGKESGHDHFFNGFIKYMPIVFDYQPQLLADIVQRAAQQKAQYLEIMTIPDNAQSLTYGDLIKDIPSYDQKRRLLLANKDFQSNIQNTVLESDRILTKASQELRCNENPASDSCHVKIKFLYYVLREQPVDNVFAQALNAFEAVSKSKGNLIGVNLVQPEDGIISLRDYQKHMSIFEYLHRIYPNVPITLHAGELSPQAVTPENLSHHIRDALLIGHAQRIGHGVDIGYENNAEDTLKYMANHHIPVEINLISNLKILDISGSNHPLNYYLSHNVPVVLSTDDEGVLRTDLTQQYVEAAKEHGLSYQQLKQINRNTLTYSFLPGKSIWANADKAELVPDCHDLGSKSCQKFIAHNEKAKLQWNLEQQLIAFEKS | not soluble
MSLKNLFNKYNDMKGVSSVYISKAMMELNPNLFMKDLYIGKVAEHLNSVQVLSTHDNKVREEMAKDIRSLVQSSKYELLMKQKSTVSGSEVYVNRKGSKVKELIMVMNGASSLKFVYMEGDMTTDDIKKLMLYQSTSQNFIISGDLFYANNKPVTYFKKGNSDNQKDMAELSGTYNLNSIDTNYKEELSTLNDKLKRIDQGLKNMNIKEGHHHHHH | soluble
TSIMAVTFKDGVILGADSRTTTGAYIANRVTDKLTRVHDKIWCCRSGSAADTQAIADIVQYHLELYTSQYGTPSTETAASVFKELCYENKDNLTAGIIVAGYDDKNKGEVYTIPLGGSVHKLPYAIAGSGSTFIYGYCDKNFRENMSKEETVDFIKHSLSQAIKWDGSSGGVIRMVVLTAAGVERLIFYPDEYEQL | soluble
MATIGLDRLYYAKITENENGEETYATPVPLAKAITAELSVELAEATLYADDGAAEVVKEFQSGTLTLGVADIGVDAAEVLTGATLDDNKVLISTSEDGGAPVAIGFRAKKANGKYRYFWLYRVKFGIPATNLQTKGDSITFSTPTIEGTVMRRNKPDGQGKHPWKAEVSEDDPGVLPETIAGWYTEVYEPVFAVGGGS | not soluble
